The target of this assay is T1, CD19 Fc recombinant protein (UniProt P15391 20-291).
T1 construct: Bought staining reagent (R&D System), detected with anti-Fc-AF647; also called CD19-Fc peptide; not shown: Fc part of the bought reagent
T1 sequence (looked up): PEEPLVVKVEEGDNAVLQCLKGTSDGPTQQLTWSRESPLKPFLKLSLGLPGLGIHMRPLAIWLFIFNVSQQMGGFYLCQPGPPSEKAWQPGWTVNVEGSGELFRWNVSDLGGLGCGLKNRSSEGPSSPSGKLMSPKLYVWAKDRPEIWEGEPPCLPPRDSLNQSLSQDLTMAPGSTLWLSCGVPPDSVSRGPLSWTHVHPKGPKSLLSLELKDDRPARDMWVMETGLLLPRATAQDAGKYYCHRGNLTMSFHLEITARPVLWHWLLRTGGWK
As to the kind of experiment: flow cytometry of CAR-transduced primary T cells stained with CD19 Fc, then anti-Fc AF647. The protocol: The surface expression of anti-CD20/CD19 CARs incorporating single chain fragment variable (ScFv) sequences reactive with fully human CD20 and CD19 antigens, is shown in Example 1 infra, FIG. 1B. The expression level for each ScFv-containing CAR was determined by flow cytometric analysis of LV-transduced T cells from healthy donors using CD19 Fc recombinant protein, followed by anti Fc AF647 (APC).
Half million CAR T cells were washed in cold AutoMACS buffer supplemented with 0.5% bovine serum albumin (Miltenyi Biotec, Bergisch Gladbach, Germany) and stained with CD19-Fc peptide (R&D System, Minneapolis, MN), followed by anti Fc-AF647 conjugate (Jackson ImmunoResearch, West Grove, PA). The 7-Aminoactinomycin D staining (7-AAD, BD Biosciences, San Jose, CA) was added to exclude dead cells. CD4 antibody labeled with Vioblue fluorochrome was used to separate CD4 and CD8 population. Non-transduced cells (UTD) were used as a negative control. Cells were washed twice, resuspended in 200 μl running buffer, and acquired by flow cytometry. Flow cytometric analysis was performed on a MACSQuant® 10 Analyzer (Miltenyi Biotec), and data plots were generated using FlowJo software (Ashland, OR).

B1: CAR D0256 (CD20_CD19 CD8 CD28 BBz) (other)
chain: EIVLTQSPATLSLSPGERATLSCRASQSVSSYLAWYQQKPGQAPRLLIYDASNRATGIPARFSGSGSGTDFTLTISSLEPEDFAVYYCQQRSNWPITFGQGTRLEIKGGGGSGGGGSGGGGSEVQLVESGGGLVQPGRSLRLSCAASGFTFNDYAMHWVRQAPGKGLEWVSTISWNSGSIGYADSVKGRFTISRDNAKKSLYLQMNSLRAEDTALYYCAKDIQYGNYYYGMDVWGQGTTVTVSSGGGGSGGGGSGGGGSGGGGSGGGGSEVQLVQSGAEVKKPGASVKVSCKASGYTFTSYYMHWVRQAPGQGLEWMGLINPSGGSTSYAQKFQGRVTMTRDTSTSTVYMELSSLRSEDTAVYYCARSDRGITATDAFDIWGQGTMVTVSSGGGGSGGGGSGGGGSQSVLTQPPSVSVAPGRMAKITCGGSDIGNKNVHWYQQKPGQAPVLVVYDDYDRPSGIPERFSGSNSGDAATLTISTVEVGDEADYFCQVWDGSGDPYWMFGGGTQLTVLGAAATTTPAPRPPTPAPTIASQPLSLRPEACRPAAGGAVHTRGLDFACDIYIWAPLAGTCGVLLLSLVITLYCRSKRSRLLHSDYMNMTPRRPGPTRKHYQPYAPPRDFAAYRSKRGRKKLLYIFKQPFMRPVQTTQEEDGCSCRFPEEEEGGCELRVKFSRSADAPAYQQGQNQLYNELNLGRREEYDVLDKRRGRDPEMGGKPRRKNPQEGLYNELQKDKMAEAYSEIGMKGERRRGKGHDGLYQGLSTATKDTYDALHMQALPPR
notes: Tandem CAR on transduced human primary T cells: CD20 scFv, G4S linker, CD19 scFv, CD8 hinge/TM, CD28_4-1BB, CD3zeta; no residue limits are stated
Regarding B1, the binding result is “binds”.

B2: CAR D0255 (CD20_CD19 CD28 CD28 BBz) (other)
chain: EIVLTQSPATLSLSPGERATLSCRASQSVSSYLAWYQQKPGQAPRLLIYDASNRATGIPARFSGSGSGTDFTLTISSLEPEDFAVYYCQQRSNWPITFGQGTRLEIKGGGGSGGGGSGGGGSEVQLVESGGGLVQPGRSLRLSCAASGFTFNDYAMHWVRQAPGKGLEWVSTISWNSGSIGYADSVKGRFTISRDNAKKSLYLQMNSLRAEDTALYYCAKDIQYGNYYYGMDVWGQGTTVTVSSGGGGSGGGGSGGGGSGGGGSGGGGSEVQLVQSGAEVKKPGASVKVSCKASGYTFTSYYMHWVRQAPGQGLEWMGLINPSGGSTSYAQKFQGRVTMTRDTSTSTVYMELSSLRSEDTAVYYCARSDRGITATDAFDIWGQGTMVTVSSGGGGSGGGGSGGGGSQSVLTQPPSVSVAPGRMAKITCGGSDIGNKNVHWYQQKPGQAPVLVVYDDYDRPSGIPERFSGSNSGDAATLTISTVEVGDEADYFCQVWDGSGDPYWMFGGGTQLTVLGAAAIEVMYPPPYLDNEKSNGTIIHVKGKHLCPSPLFPGPSKPFWVLVVVGGVLACYSLLVTVAFIIFWVRSKRSRLLHSDYMNMTPRRPGPTRKHYQPYAPPRDFAAYRSKRGRKKLLYIFKQPFMRPVQTTQEEDGCSCRFPEEEEGGCELRVKFSRSADAPAYQQGQNQLYNELNLGRREEYDVLDKRRGRDPEMGGKPRRKNPQEGLYNELQKDKMAEAYSEIGMKGERRRGKGHDGLYQGLSTATKDTYDALHMQALPPR
notes: Tandem CAR on transduced human primary T cells: CD20 scFv, G4S linker, CD19 scFv, CD28 hinge/TM, CD28_4-1BB, CD3zeta; no residue limits are stated; also called CAR DO255
Consider B2, for which the binding result is listed as “binds”.

These data come from patent US20240075142A1 (LENTIGEN TECHNOLOGY, published 2024).
